This is an account of results in US20060252692A1, “Inhibitors for use in hemostasis” (ZymoGenetics, Inc., priority 2002, published 2006).

One test relates to TF-1 cells. Kind of test: Adhesion and spreading of TF-1 cells on zsig37-coated plates. It is filed as cell-based. To be noted: addition of soluble zsig37. As to the method: The ability of zsig37 to stimulate adhesion and spreading of TF-1 cells was assayed as follows. A series of dilutions were prepared from C-terminal Glu-Glu-tagged zsig37, from 10 to 0.0625 ’g/ml, in either PBS or ELISA coating buffer (0.1 M NaCO3) and each was plated into a 96 well plate (Costar; Pleasanton, Calif.) at 100 μl/well. The plates were incubated at 37° C., 5% CO2 for 2 hours. The plates were then washed 3× with RPMI/10% FBS (RPMI 1640, 2 mM L-glutamine, 110 μg/ml sodium pyruvate, PSN and 10% heat inactivated fetal bovine serum) and allowed to block for 15 minutes.
TF-1 cells (derived from acute myeloid leukemia cells) were resuspended in RPMI/10% FBS and plated into at 10,000 cells/well into the zsig37CEE-coated 96 well plates at a final volume of 120 μl/well. The plate was incubated at 37° C. under 5% CO2 for 2 hours. The plates were then washed 3× with PBS and 200 μl/well growth media (RPMI/10% FBS, 5 ng/ml GM-CSF) was added. The cells were microscopically inspected before and after the wash.
A dye incorporation assay was also used to measure the number of adherent cells based on a colorimetric change and an increase in fluorescent signal. ALAMAR BLUE (AccuMed; Chicago, Ill.) was added to the 96 well plates and the cells were incubated at 37° C. under 5% CO2 overnight. […]

The test system of another test is DA-1 cells. Kind of test: Proliferation assay on zsig37-coated plates, DA-1. In kind it is cell-based, mouse. To be noted: 5,000 cells/well. As to the method:
A second assay was performed with TF-1, DA-1, an IL-3 dependent cell line derived from the lymph node of a mouse with a B-cell lymphoma by outgrowth in IL-3 media, pre-B (p53−/− mouse marrow cells, IL-7 dependent, B220+, Thy1 low, Sca-1+), and A7BaF-3 cell lines as described above at 5,000 cells/well. BHK cells were also plated at 500 cells/well.

For test [1], the system named is alternate pathway of human Complement serum. Kind of test: Complement hemolysis assay, alternate pathway (rabbit erythrocytes and EGTA). It is filed as biochemical. As to the method: Complement assays were performed in 96 well round bottom plates. Gelatin Veronal buffer containing magnesium and calcium (141 mM NaCl, 1.8 mM sodium barbitol, 3.1 mM barbituric acid, 0.1% bovine gelatin, 0.5 mM MgCl2 and 0.15 mM CaCl2) was used for all serum and inhibitor dilutions as well as erythrocyte suspensions. Fifty microliters of standardized human Complement serum (Sigma Chemical Co.), diluted 1/37.5 (for a final dilution of 1/150) was added to each well. The inhibitor was added in triplicate, 50 μl/well. The serum and inhibitor were incubated for thirty minutes at room temperature. The assay was initiated by the addition of 100 μl of 2×10^8/ml unsensitized sheep erythrocytes (Colorado Serum Co.; Denver, Colo.), sensitized sheep erythrocytes, sensitized using the Hemolysin manufacturer's protocol (BioWhittaker Inc.; Walkersville, Md.) and rabbit erythrocytes containing 16 mM EGTA, and 4 mM Mg^++. A human serum dilution series from 1/50 to 1/400 was also plated as an activity control. Erythrocytes, lysed with distilled water and diluted to 100, 75, 50, 25, and 12.5 percent lysis, were used to quantify complement percent lysis. The plate was sealed and incubated at 37° C. for one hour with mixing every 15 minutes. […] The plate was read at 415 nm and percent lysis was calculated.

Test [2] relates to RAW 264.7 (ATCC No. CRL-2278). Kind of test: Binding of zsig37 to RAW 264.7 monocyte/macrophage line. To be noted: mouse monocyte/macrophage line. An excerpt:
This could potentially result in zsig37 involvement in monocyte phagocytosis, microbial killing, and cellular cytotoxicity. Following the two days in culture, there are macrophages present in the culture and zsig37 may be binding preferentially to this subset of cells. Zsig37 also bound to a mouse monocyte/macrophage line, RAW 264.7 (ATCC No. CRL-2278), indicating macrophage specificity.

For test [3], the system named is platelet rich thrombus formation induced by vascular injury. Kind of test: Platelet rich thrombus formation induced by vascular injury (Folts Model). It is filed as in vivo, cynomolgus monkeys. The settings on record: remained open. As to the method: The effect of zsig37 on platelet rich thrombus formation induced by vascular injury (Folts Model) was also tested with cynomolgus monkeys. In the absence of treatment, blood flow in the vessels decreased to zero flow, indicating an occlusion of the artery. In contrast, cynomolgus monkeys that received the vascular injury and were treated with 1.0 mg/kg zsig37 had vessels that were fully patent by 20 minutes following treatment and remained open. When cynomolgus monkeys received the vascular injury and were treated with 0.5 mg/kg zsig37, their vessels were fully patent by 30 minutes following treatment and then remained open.

The subject of a further test is platelets in whole blood. The test is described as follows: Whole blood platelet activation (Lumi-Aggregometer). In kind it is cell-based, human. Here is the method: Blood was drawn from healthy volunteers into tubes containing sodium citrate, maintained at room temperature, and used within four hours of drawing. Whole blood was analyzed for platelet activation using a Chrono-Log 560A Whole Blood Lumi-Aggregometer (Chrono-Log Corp.; Haverton, Pa.) according to manufacturer's instructions. For each test point, 500 μl of blood were added to a reaction tube containing a stir bar and 500 μl of isotonic saline containing zsig37 at concentrations from 0 to 20 μg/ml. The mixture was incubated for four minutes followed by platelet activation initiated by the addition of 5 μl of 1 mg/ml cross-linked collagen (Chrono-Log Corp.) to the blood/zsig37 mixture. Inhibition of activation by ADP (final concentration 10 μM), and thrombin (final concentration lU/ml) were tested in a similar way.

B1: zsig37: adipocyte complement related protein homolog, polypeptide of SEQ ID NO:2, inhibits collagen-mediated platelet activation and the complement pathway (protein, listed as Homo sapiens)
chain: MGSRGQGLLLAYCLLLAFASGLVLSRVPHVQGEQQEWEGTEELPSPPDHAERAEEQHEKYRPSQDQGLPASRCLRCCDPGTSMYPATAVPQINITILKGEKGDRGDRGLQGKYGKTGSAGARGHTGPKGQKGSMGAPGERCKSHYAAFSVGRKKPMHSNHYYQTVIFDTEFVNLYDHFNMFTGKFYCYVPGLYFFSLNVHTWNQKETYLHIMKNEEEVVILFAQVGDRSIMQSQSLMLELREQDQVWVRLYKGERENAIFSEELDTYITFSGYLVKHATEP
Turning to B1, the “block of cell adhesion to bound zsig37 by soluble zsig37” value in the test with TF-1 cells is given as “did not block adhesion”. Further, the “growth of DA-1 cells” value in the test with DA-1 cells is recorded as “slightly inhibited growth”. Also, the “inhibition of alternate pathway lysis” value in test [1] was “no apparent inhibition”. Moreover, in test [2], the “binding to RAW 264.7” value is given as “bound”. In addition, the “time to fully patent vessels following treatment” value in test [3] (0.5 mg/kg) was not above 30 min; in test [3] (1.0 mg/kg), not above 20 min. Moreover, the “effect on platelet activation stimulated by ADP” value in the test with platelets in whole blood (ADP final concentration 10 μM) is “no effect”. For the same molecule, the “inhibition of collagen-mediated platelet activation” value with platelets in whole blood (cross-linked collagen, zsig37 0 to 20 μg/ml) was “dose dependent relationship between 5 and 20 μg/ml”. For the same molecule, in the test on platelets in whole blood (thrombin), the “effect on platelet activation stimulated by thrombin” value is listed as “no effect”.
